# Measurements reported in patent publication CN115073593A (SHANGHAI JUNSHI BIOSCIENCES CO LTD; JUNMENG BIOSCIENCES CO …, dated 2022).
# Positions count from the first letter of the chain named.
# B1: JS016-38 (antibody, V domains shown)
# VH: EVQLVESGGGLVQPGGSLRLSCAASGFRVRRNYMSWVRQAPGKGLEWVSVIYPGGSTFYADSVKGRFTISRDNSMNTLFLQMNSLRAEDTAVYYCARVLPMYGDYLDYWGQGTLVTVSS
# VL: DIVMTQSPSSLSASVGDRVTITCRASQNIERYLNWYQQKPGKAPKLLIYAASSLQSGVPSRFSGSGSGTDFTLTISSLQPEDFATYYCQQSASSTPEYTFGQGTKLEIKR
# B2: CB6-15 (重链突变库克隆) (Fab)
# VH: B1 VH with R28Q, R30N
# light: […]
# notes: also called CB6-15-VH; CB6-15-HC
# B3: CB6-30 (轻链突变库克隆) (Fab, V domains shown)
# VH: B1 VH with R28T, R30S, R31S, P53S
# VL: DIVMTQSPSSLSASVGDRVTITCRASQWILPYLNWYQQKPGKAPKLLIYAASSLQSGVPSRFSGSGSGTDFTLTISSLQPEDFATYYCQQSSSSTPEYTFGQGTKLEIK
# notes: also called CB6-30-VL; CB6-30-LC
# B4: CB6-17 (轻链突变库克隆) (Fab, V domains shown)
# VH: B1 VH with R28T, R30S, R31S, P53S
# VL: B3 VL with W28V, L30N, P31H, S92G, S94P
# notes: also called CB6-17-VL; CB6-17-LC
# B5: CB6-18 (轻链突变库克隆) (Fab, V domains shown)
# VH: B1 VH with R28T, R30S, R31S, P53S
# VL: B3 VL with W28D, L30H, P31V, S92G, S94P, T95V
# notes: also called CB6-18-VL; CB6-18-LC
# B6: CB6-19 (轻链突变库克隆) (Fab, V domains shown)
# VH: B1 VH with R28T, R30S, R31S, P53S
# VL: B3 VL with W28Q, L30N, P31F, S92G, T95L
# notes: also called CB6-19-VL; CB6-19-LC
# B7: CB6-20 (轻链突变库克隆) (Fab, V domains shown)
# VH: B1 VH with R28T, R30S, R31S, P53S
# VL: B3 VL with W28A, S92Y, S94I, T95I
# notes: also called CB6-20-VL; CB6-20-LC
# B8: CB6-21 (轻链突变库克隆) (Fab, V domains shown)
# VH: B1 VH with R28T, R30S, R31S, P53S
# VL: B3 VL with L30G, P31N, S92T, S94N, T95R
# notes: also called CB6-21-VL; CB6-21-LC
# B9: CB6-22 (轻链突变库克隆) (Fab, V domains shown)
# VH: B1 VH with R28T, R30S, R31S, P53S
# VL: B3 VL with W28R, S94A
# notes: also called CB6-22-VL; CB6-22-LC
# B10: CB6-23 (轻链突变库克隆) (Fab, V domains shown)
# VH: B1 VH with R28T, R30S, R31S, P53S
# VL: B3 VL with L30P, P31S, S92K, S94W, T95K
# notes: also called CB6-23-VL; CB6-23-LC
# B11: CB6-24 (轻链突变库克隆) (Fab, V domains shown)
# VH: B1 VH with R28T, R30S, R31S, P53S
# VL: B3 VL with W28Q, L30S, P31R, S94P
# notes: also called CB6-24-VL; CB6-24-LC
# B12: CB6-25 (轻链突变库克隆) (Fab, V domains shown)
# VH: B1 VH with R28T, R30S, R31S, P53S
# VL: B3 VL with W28N, L30M, P31Q, S94P, T95K
# notes: also called CB6-25-VL; CB6-25-LC
# B13: CB6-26 (轻链突变库克隆) (Fab, V domains shown)
# VH: B1 VH with R28T, R30S, R31S, P53S
# VL: B3 VL with W28R, L30E, P31Q, S92A, T95S
# notes: also called CB6-26-VL; CB6-26-LC
# B14: CB6-27 (轻链突变库克隆) (Fab, V domains shown)
# VH: B1 VH with R28T, R30S, R31S, P53S
# VL: B3 VL with W28S, S92N, S94P, T95R
# notes: also called CB6-27-VL; CB6-27-LC
# B15: CB6-28 (轻链突变库克隆) (Fab, V domains shown)
# VH: B1 VH with R28T, R30S, R31S, P53S
# VL: B3 VL with W28D, L30V, P31S, S92A, S94P
# notes: also called CB6-28-VL; CB6-28-LC
# B16: CB6-29 (轻链突变库克隆) (Fab, V domains shown)
# VH: B1 VH with R28T, R30S, R31S, P53S
# VL: B3 VL with W28M, S94A, T95K
# notes: also called CB6-29-VL; CB6-29-LC
# B17: CB6-31 (轻链突变库克隆) (Fab, V domains shown)
# VH: B1 VH with R28T, R30S, R31S, P53S
# VL: B3 VL with W28Q, L30R, P31Q, S94P
# notes: also called CB6-31-VL; CB6-31-LC
# B18: CB6-32 (轻链突变库克隆) (Fab, V domains shown)
# VH: B1 VH with R28T, R30S, R31S, P53S
# VL: B3 VL with W28D, L30D, P31G, S92A, S94P, T95V
# notes: also called CB6-32-VL; CB6-32-LC
# B19: CB6-33 (轻链突变库克隆) (Fab, V domains shown)
# VH: B1 VH with R28T, R30S, R31S, P53S
# VL: B3 VL with W28N, S94A, T95V
# notes: also called CB6-33-VL; CB6-33-LC
# B20: CB6-34 (轻链突变库克隆) (Fab, V domains shown)
# VH: B1 VH with R28T, R30S, R31S, P53S
# VL: B3 VL with W28S, P31Q, S94P, T95V
# notes: also called CB6-34-VL; CB6-34-LC
# B21: CB6-35 (轻链突变库克隆) (Fab, V domains shown)
# VH: B1 VH with R28T, R30S, R31S, P53S
# VL: B3 VL with W28K, L30H, P31Q, S92E, T95K
# notes: also called CB6-35-VL; CB6-35-LC
# B22: CB6-36 (轻链突变库克隆) (Fab, V domains shown)
# VH: B1 VH with R28T, R30S, R31S, P53S
# VL: B3 VL with W28A, S94A, T95L
# notes: also called CB6-36-VL; CB6-36-LC
# B23: CB6-37 (轻链突变库克隆) (Fab, V domains shown)
# VH: B1 VH with R28T, R30S, R31S, P53S
# VL: B3 VL with W28M, S94A
# notes: also called CB6-37-VL; CB6-37-LC
# B24: CB6-38 (轻链突变库克隆) (Fab, V domains shown)
# VH: B1 VH with R28T, R30S, R31S, P53S
# VL: B3 VL with W28N, L30E, P31R, S92A
# notes: also called CB6-38-VL; CB6-38-LC
# B25: CB6-39 (轻链突变库克隆) (Fab, V domains shown)
# VH: B1 VH with R28T, R30S, R31S, P53S
# VL: B3 VL with W28P, L30N, P31Q, S92K, T95L
# notes: also called CB6-39-VL; CB6-39-LC
# B26: CB6-40 (轻链突变库克隆) (Fab, V domains shown)
# VH: B1 VH with R28T, R30S, R31S, P53S
# VL: B3 VL with W28K, L30S, P31Q, S92T, S94F, T95M
# notes: also called CB6-40-VL; CB6-40-LC
# B27: CB6-41 (轻链突变库克隆) (Fab, V domains shown)
# VH: B1 VH with R28T, R30S, R31S, P53S
# VL: B3 VL with W28A, L30A, P31Y, L47E, S92P, S94A, T95F
# notes: also called CB6-41-VL; CB6-41-LC
# B28: CB6-42 (轻链突变库克隆) (Fab, V domains shown)
# VH: B1 VH with R28T, R30S, R31S, P53S
# VL: B3 VL with W28S, L30I, P31Q, S92A, S94A, T95R
# notes: also called CB6-42-VL; CB6-42-LC
# B29: CB6-43 (轻链突变库克隆) (Fab, V domains shown)
# VH: B1 VH with R28T, R30S, R31S, P53S
# VL: B3 VL with W28N, L30H, P31T, S92G, T95I
# notes: also called CB6-43-VL; CB6-43-LC
# Biological target: T1, 重组SARS-CoV-2-RBD-His (SARS-CoV-2, UniProt P0DTC2 319-541)
# T1 construct: domain: RBD
# Assay: BLI Octet Red 96e, antibody on Protein A probe
Binder,fold improvement of the affinity constant over CB6,fold slower dissociation rate than CB6
B1,~100 倍,~100 倍

# Biological target: T1, 重组SARS-CoV-2-RBD-His
# Assay: BLI Octet Red 96e, antibody on Protein A probe, RBD-his in solution
Binder,Kd [nM],koff [s⁻¹],kon [M⁻¹ s⁻¹]
B1,< 0.0741,< 1e-05,135000

# Biological target: 生物素化的SARS-CoV-2 RBD (SARS-CoV-2, UniProt P0DTC2 319-541)
# Assay: ELISA screen, Fab culture supernatant on streptavidin-captured biotinylated RBD
row,Binder,binding result
1,B2,binds
2,B3,binds
3,B4,binds
4,B5,binds
5,B6,binds
6,B7,binds
7,B8,binds
8,B9,binds
9,B10,binds
10,B11,binds
11,B12,binds
12,B13,binds
13,B14,binds
14,B15,binds
15,B16,binds
16,B17,binds
17,B18,binds
18,B19,binds
19,B20,binds
20,B21,binds
21,B22,binds
22,B23,binds
23,B24,binds
24,B25,binds
25,B26,binds
26,B27,binds
27,B28,binds
28,B29,binds
